{
  "source": "IntAct's records for PubMed 12023880",
  "parents": {"B1": {"name": "Tyrosine-protein phosphatase non-receptor type 1 (Homo sapiens), P18031 (parent)", "chain": "MEMEKEFEQIDKSGSWAAIYQDIRHEASDFPCRVAKLPKNKNRNRYRDVSPFDHSRIKLHQEDNDYINASLIKMEEAQRSYILTQGPLPNTCGHFWEMVWEQKSRGVVMLNRVMEKGSLKCAQYWPQKEEKEMIFEDTNLKLTLISEDIKSYYTVRQLELENLTTQETREILHFHYTTWPDFGVPESPASFLNFLFKVRESGSLSPEHGPVVVHCSAGIGRSGTFCLADTCLLLMDKRKDPSSVDIKKVLLEMRKFRMGLIQTADQLRFSYLAVIEGAKFIMGDSSVQDQWKELSHEDLEPPPEHIPPPPRPPKRILEPHNGKCREFFPNHQWVKEETQEDKDCPIKEEKGSPLNAAPYGIESMSQDTEVRSRVVGGSLRGAQAASPAKGEPSLPEKDEDHALSYWKPFLVNMCVATVLTAGAYLCYRFLFNSNT"}, "B2": {"name": "Tyrosine-protein phosphatase non-receptor type 1 (Homo sapiens), P18031 (parent)", "chain": "B1 chain", "partner": "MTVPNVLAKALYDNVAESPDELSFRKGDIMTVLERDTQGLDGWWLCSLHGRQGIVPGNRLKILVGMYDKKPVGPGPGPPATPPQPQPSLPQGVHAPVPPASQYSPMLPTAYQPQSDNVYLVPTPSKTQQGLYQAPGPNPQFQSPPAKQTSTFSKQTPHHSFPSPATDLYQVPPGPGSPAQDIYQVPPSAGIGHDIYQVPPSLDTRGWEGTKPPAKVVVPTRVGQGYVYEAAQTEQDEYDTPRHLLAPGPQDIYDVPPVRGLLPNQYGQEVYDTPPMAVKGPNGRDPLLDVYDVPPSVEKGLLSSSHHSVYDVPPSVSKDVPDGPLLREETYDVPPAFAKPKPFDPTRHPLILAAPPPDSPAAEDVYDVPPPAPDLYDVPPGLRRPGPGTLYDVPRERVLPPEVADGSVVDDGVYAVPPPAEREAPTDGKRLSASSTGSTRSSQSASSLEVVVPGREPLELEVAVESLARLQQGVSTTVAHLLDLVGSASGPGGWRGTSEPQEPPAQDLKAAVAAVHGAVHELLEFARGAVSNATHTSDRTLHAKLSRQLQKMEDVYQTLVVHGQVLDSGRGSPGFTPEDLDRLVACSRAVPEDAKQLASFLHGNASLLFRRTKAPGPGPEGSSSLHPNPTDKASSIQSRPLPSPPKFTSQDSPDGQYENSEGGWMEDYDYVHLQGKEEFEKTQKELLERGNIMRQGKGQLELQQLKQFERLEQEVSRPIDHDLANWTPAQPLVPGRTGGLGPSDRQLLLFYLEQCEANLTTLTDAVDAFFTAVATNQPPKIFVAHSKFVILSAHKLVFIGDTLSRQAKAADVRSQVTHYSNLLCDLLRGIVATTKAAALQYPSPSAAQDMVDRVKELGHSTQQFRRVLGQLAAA"}},
  "data": [
    {"variants_of": "B1", "conditions": "with insr_rat Insr", "values": [
      {"variant": "MEMEKEFEQIDKSGSWAAIYQDIRHEASDFPCRVAKLPKNKNRNRYRDVSPFDHSRIKLHQEDNDYINASLIKMEEAQRSYILTQGPLPNTCGHFWEMVWEQKSRGVVMLNRVMEKGSLKCAQYWPQKEEKEMIFEDTNLKLTLISEDIKSFFTVRQLELENLTTQETREILHFHYTTWPDFGVPESPASFLNFLFKVRESGSLSPEHGPVVVHCSAGIGRSGTFCLADTCLLLMDKRKDPSSVDIKKVLLEMRKFRMGLIQTADQLRFSYLAVIEGAKFIMGDSSVQDQWKELSHEDLEPPPEHIPPPPRPPKRILEPHNGKCREFFPNHQWVKEETQEDKDCPIKEEKGSPLNAAPYGIESMSQDTEVRSRVVGGSLRGAQAASPAKGEPSLPEKDEDHALSYWKPFLVNMCVATVLTAGAYLCYRFLFNSNT", "note": "[Y152F;Y153F]", "effect of a mutation on the interaction": "disrupting interaction"}
    ]},
    {"variants_of": "B1", "conditions": "with src_rat Src", "values": [
      {"variant": "P309A;P310A", "effect of a mutation on the interaction": "disrupting interaction"}
    ]},
    {"variants_of": "B1", "conditions": "with grb2_rat Grb2, P62994", "values": [
      {"variant": "P309A;P310A", "effect of a mutation on the interaction": "disrupting interaction"}
    ]},
    {"variants_of": "B1", "conditions": "with crk_rat Crk", "values": [
      {"variant": "P309A;P310A", "effect of a mutation on the interaction": "disrupting interaction"}
    ]},
    {"variants_of": "B2", "conditions": "with bcar1_mouse Bcar1, Q61140", "values": [
      {"variant": "P309A;P310A", "effect of a mutation on the interaction": "disrupting interaction"}
    ]}
  ]
}
